Blank lines part the entries; values can stand above or below the molecule they belong to.
Tests used:
[1] = tested on: GAS consensus site DNA (TTCnnnGAA); assay: TIRF-PBM binding of STAT1 proteins to DNA
[2] = tested on: GAS cognate DNA; assay: EMSA with P32-labeled cognate DNA; type: binding; conditions: data not shown

fold impact on affinity compared to P-STAT1 binding ([1]; optimal GAS site DNA): > 100 fold
fold decrease in binding affinity vs P-STAT1 [2]: > 200 fold
B1: U-STAT1: unphosphorylated STAT1 (protein, UniProt P42224 2-750, looked up)
Signal transducer and …: SQWYELQQLDSKFLEQVHQLYDDSFPMEIRQYLAQWLEKQDWEHAANDVSFATIRFHDLLSQLDDQYSRFSLENNFLLQHNIRKSKRNLQDNFQEDPIQMSMIIYSCLKEERKILENAQRFNQAQSGNIQSTVMLDKQKELDSKVRNVKDKVMCIEHEIKSLEDLQDEYDFKCKTLQNREHETNGVAKSDQKQEQLLLKKMYLMLDNKRKEVVHKIIELLNVTELTQNALINDELVEWKRRQQSACIGGPPNACLDQLQNWFTIVAESLQQVRQQLKKLEELEQKYTYEHDPITKNKQVLWDRTFSLFQQLIQSSFVVERQPCMPTHPQRPLVLKTGVQFTVKLRLLVKLQELNYNLKVKVLFDKDVNERNTVKGFRKFNILGTHTKVMNMEESTNGSLAAEFRHLQLKEQKNAGTRTNEGPLIVTEELHSLSFETQLCQPGLVIDLETTSLPVVVISNVSQLPSGWASILWYNMLVAEPRNLSFFLTPPCARWAQLSEVLSWQFSSVTKRGLNVDQLNMLGEKLLGPNASPDGLIPWTRFCKENINDKNFPFWLWIESILELIKKHLLPLWNDGCIMGFISKERERALLKDQQPGTFLLRFSESSREGAITFTWVERSQNGGEPDFHAVEPYTKKELSAVTFPDIIRNYKVMAAENIPENPLKYLYPNIDKDHAFGKYYSRPKEAPEPMELDGPKGTGYIKTELISVSEVHPSRLQTTDNLLPMSPEEFDEVSRIVGSVEFDSMMNTV
modifications: unphosphorylated

average fold impact on binding compared to P-STAT1 at preferred binding sites ([1]; reduced binding): 2.6 fold
B2: P-STAT1tc: Phosphorylated truncated STAT1 lacking N-terminal domain and short C-terminal activation domain (amino acids 132-712) (protein, UniProt P42224 132-712, looked up, fragment)
chain: STVMLDKQKELDSKVRNVKDKVMCIEHEIKSLEDLQDEYDFKCKTLQNREHETNGVAKSDQKQEQLLLKKMYLMLDNKRKEVVHKIIELLNVTELTQNALINDELVEWKRRQQSACIGGPPNACLDQLQNWFTIVAESLQQVRQQLKKLEELEQKYTYEHDPITKNKQVLWDRTFSLFQQLIQSSFVVERQPCMPTHPQRPLVLKTGVQFTVKLRLLVKLQELNYNLKVKVLFDKDVNERNTVKGFRKFNILGTHTKVMNMEESTNGSLAAEFRHLQLKEQKNAGTRTNEGPLIVTEELHSLSFETQLCQPGLVIDLETTSLPVVVISNVSQLPSGWASILWYNMLVAEPRNLSFFLTPPCARWAQLSEVLSWQFSSVTKRGLNVDQLNMLGEKLLGPNASPDGLIPWTRFCKENINDKNFPFWLWIESILELIKKHLLPLWNDGCIMGFISKERERALLKDQQPGTFLLRFSESSREGAITFTWVERSQNGGEPDFHAVEPYTKKELSAVTFPDIIRNYKVMAAENIPENPLKYLYPNIDKDHAFGKYYSRPKEAPEPMELDGPKGTGYIKTELISVSEV
modifications: phosphorylated

Source: article PMC3553987 (Nucleic Acids Research, 2012)
